The values below come from patent US20220041683A1 (published 2022).

The target of experiment [1] is T1, NRP1 displayed on the human umbilical vein endothelial cell (HUVEC) surface (human, UniProt O14786 22-923).
T1 construct: whole, on cells; Endogenous NRP1 of human cells; also called NRP1 on the HUVEC cell surface
Description: confocal microscopy on HUVEC. The procedure: Specifically, 5×10⁴ HUVEC cells were added to each well of a 24-well plate and incubated in 0.5 ml of EGM2 (Endothelial growth medium, Promocell) medium for 24 hours under the conditions of 5% CO₂ and 37° C. […] Next, the medium was removed, and each well was washed with cold PBS. […] The nucleus was stained (blue fluorescence) with DAPI and analyzed by confocal microscopy.

The target of experiment [2] is NRP1-b1b2 (273-586) protein (UniProt O14786). Description: SPR (Biacore 2000), NRP1-b1b2 immobilised on CM5.
The target in experiment [3] is NRP2-b1b2 (275-595) protein (UniProt O60462). As to the kind of experiment: SPR; KD on NRP2-b1b2 divided by KD on NRP1-b1b2.
NRP2-b1b2 (275-595) protein, sequence (O60462 275-595 limits assumed, form in doubt): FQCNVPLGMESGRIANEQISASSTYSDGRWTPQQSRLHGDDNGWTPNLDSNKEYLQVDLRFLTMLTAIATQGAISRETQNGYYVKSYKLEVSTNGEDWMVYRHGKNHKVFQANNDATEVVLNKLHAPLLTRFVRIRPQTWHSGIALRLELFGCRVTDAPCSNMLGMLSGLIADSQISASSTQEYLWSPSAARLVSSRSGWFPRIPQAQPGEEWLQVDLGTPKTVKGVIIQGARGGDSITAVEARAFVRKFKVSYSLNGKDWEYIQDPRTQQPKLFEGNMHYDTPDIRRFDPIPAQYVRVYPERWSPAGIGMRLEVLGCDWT
Experiment [4] shares this target. As to the kind of experiment: SPR (Biacore 2000), NRP2-b1b2 immobilised on CM5.
The target of experiment [5] is NRP1-b1b2 (273-586) protein (UniProt O14786). Description: ELISA on immobilised NRP1-b1b2, reference Fc-TPP11.

Where no end group is shown, it is not given here.

B1: Fc-TPP1 (Fc fusion)
chain: GGGGSGGGGSGGGGSHTPGNSNQFVLTSTRPPR
modifications: not fully specified (N-terminus); also: Fc fusion, peptide at end of CH3, Fc not in chain, disulfide-linked Fc dimer
notes: Disulfide-linked dimer, peptide fused to the end of CH3 by a (G4S)3 linker; expressed in HEK293-F; also called Fc-TPP1 fusion protein; Fc-TPP1 protein; not shown: Antibody heavy-chain constant region Fc (hinge-CH2-CH3)
Consider B1, for which, in experiment [1], the binding result is on record as “binds”. Moreover, the dissociation constant Kd stood at 1.81 nM in experiment [2] and 1130 nM in experiment [4]. For the same molecule, the Binding Affinity Ratio [(KD for NRP2)/KD for NRP1)] in experiment [3] came out at 625.

B2: Fc-TPP8 (Fc fusion, not shown: a dimerising Fc or GST; small tags and cut ends)
chain: GGGGSGGGGSGGGGSHTPGIATRTPR
modifications: not fully specified (N-terminus); also: Fc fusion, Fc not in chain, disulfide-linked Fc dimer
For the molecule B2, the figures for the Kd in experiment [2] and in experiment [4] were 3.85 nM and 254 nM, respectively. In addition, the Binding Affinity Ratio [(KD for NRP2)/KD for NRP1)] in experiment [3] is 65.8.
In turn, HTPGNSKPTRTPRR (also: biotinylated for ELISA, position not given here) [synthetic peptide TPP11 not fused to Fc] registered a fold lower affinity than Fc-TPP11 in experiment [5] of 100 fold.

B3: Fc-A22p (Fc fusion, not shown: a dimerising Fc or GST; small tags and cut ends)
chain: HTPGNSNKWKHLQENKKGRPRR
modifications: not fully specified (N-terminus); also: fused C-terminal to Fc (hinge-CH2-CH3), isotype and sequence not given here, linker not given here
Take B3: the Binding Affinity Ratio [(KD for NRP2)/KD for NRP1)] in experiment [3] turned out to be 0.98. In experiment [4], this molecule had a dissociation constant Kd of 62 nM.
